Measured values: article PMC7313238 (Journal of the American Society for Mass Spectrometry, 2020)

Target: the molecule itself
Assay: SEC + native MS

B1: BX1 from Zea mays (zmBX1), wild type (enzyme)
chain: SRPVSDTMAALMAKGKTAFIPYITAGDPDLATTAEALRLLDGCGADVIELGVPCSDPYIDGPIIQASVARALASGTTMDAVLEMLREVTPELSCPVVLLSYYKPIMSRSLAEMKEAGVHGLIVPDLPYVAAHSLWSEAKNNNLELVLLTTPAIPEDRMKEITKASEGFVYLVSVNGVTGPRANVNPRVESLIQEVKKVTNKPVAVGFGISKPEHVKQIAQWGADGVIIGSAMVRQLGEAASPKQGLRRLEEYARGMKNALP
  stoichiometry N: 2
